Measurements taken from the supplement of paper PMC7877785.
± gives the uncertainty stated by the source.

Assay: self-splicing fitness, log relative to wild type (ln ratio); higher = more splicing; Tetrahymena group I intron in knt gene, E. coli kanamycin selection, DiMSum; sequences stand for … in CUCUCU…GGAGGGAAAAGUUAUCAGGCAUGCACCUGGUAGCUAGUCUUUAAACCAAUAGAUUGCAUCGGUUUAAAAGGCAAGACCGUCAAAUUGCGGGAAAGGGGUCAACAGCCGUUCAGUACCAAGUCUCAGGGGAAACUUUGAGAUGGCCUUGCAAAGGGUAUGGUAAUAAGCUGACGGACAUGGUCCUAACCACGCAGCCAAGUCCUAAGUCAACAGAUCUUCUGUUGAUAUGGAUGCAGUUCACAGACUAAAUGUCGGUCGGGGAAGAUGUAUUCUUCUCAUAAGAUAUAGUCGGACCUCUCCUUAAUGGGAGCUAGCGGAUGAAGUGAUGCAACACUGGAGCCGCUGGGAACUAAUUUGUAUGCGAAAGUAUAUUGAUUAGUUUUGGAGUACUCGUGGUCG
Method in brief: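 Six replicate transformations of E. coli BL21(DE3) with a pET-22b(+) library were grown overnight at 37°C or 30°C. The library randomised all eight P1ex-region intron nucleotides, the intron lying in the knt kanamycin-resistance gene, and plates were LB agar with or without 25 μg/mL kanamycin plus 100 μg/mL carbenicillin, 50 μM IPTG and 0.2% rhamnose. Pooled colonies were amplicon-sequenced on an Illumina HiSeq 2500, and fitness is the DiMSum error-weighted combination of wild-type-normalised replicate fold changes, kanamycin versus none.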

| Sequence | self-splicing fitness (ln) (30 °C) | self-splicing fitness (ln) (37 °C) |
| --- | --- | --- |
| CGAUAGCAAUAUUACGGCUG | -0.568 ± 0.1 | 0.209 ± 0.15 |
| CGAUAGCAAUAUUACGGCUU | -2.67 ± 0.17 | -1.51 ± 0.19 |
| CGAUAGCAAUAUUACGUCAC | -3.44 ± 0.26 | -2.34 ± 0.25 |
| CGAUAGCAAUAUUACGUCGU | -4.24 ± 0.2 | -3.05 ± 0.21 |
| CGAUAGCAAUAUUACGUCUU | -1.49 ± 0.13 | -0.12 ± 0.13 |
| CGAUAGCAAUAUUACGUUCU | -1.15 ± 0.07 | -0.384 ± 0.094 |
| CGAUAGCAAUAUUACGUUUU | -3.78 ± 0.19 | -2.76 ± 0.16 |
| CGCAAGCAAUAUUACGAAUC | -4.8 ± 0.38 | -1.29 ± 0.18 |
| CGCAAGCAAUAUUACGAGCG | -3 ± 0.38 | -2.52 ± 0.44 |
| CGCAAGCAAUAUUACGAGGG | -3.85 ± 0.23 | -2.9 ± 0.32 |
| CGCAAGCAAUAUUACGAUUU | -2.45 ± 0.16 | -2.33 ± 0.18 |
| CGCAAGCAAUAUUACGCCGU | -2.67 ± 0.25 | -0.883 ± 0.14 |
| CGCAAGCAAUAUUACGCCUA | -0.46 ± 0.094 | -0.653 ± 0.1 |
| CGCAAGCAAUAUUACGCUAG | -2.46 ± 0.16 | -2.89 ± 0.2 |
| CGCAAGCAAUAUUACGGAAA | -2.31 ± 0.33 | -2.5 ± 0.2 |
| CGCAAGCAAUAUUACGGAAG | -1.03 ± 0.097 | -1.44 ± 0.1 |
| CGCAAGCAAUAUUACGGCAC | -2.32 ± 0.21 | -1.29 ± 0.3 |
| CGCAAGCAAUAUUACGGCAU | -1.63 ± 0.071 | -0.555 ± 0.079 |
| CGCAAGCAAUAUUACGGCGU | -3.52 ± 0.15 | -2.2 ± 0.18 |

| Sequence | self-splicing fitness (ln) (30 °C) | self-splicing fitness (ln) (37 °C) |
| --- | --- | --- |
| CGCAAGCAAUAUUACGGCUG | -1.33 ± 0.065 | 0.0892 ± 0.085 |
| CGCAAGCAAUAUUACGGGAG | -2.73 ± 0.095 | -2.19 ± 0.12 |
| CGCAAGCAAUAUUACGGUCA | -0.699 ± 0.067 | 0.0685 ± 0.079 |
| CGCAAGCAAUAUUACGUACA | -2.03 ± 0.11 | -0.56 ± 0.085 |
| CGCAAGCAAUAUUACGUAGA | -2.6 ± 0.11 | -1.73 ± 0.13 |
| CGCAAGCAAUAUUACGUGCG | -2.81 ± 0.26 | -2.23 ± 0.2 |
| CGCAAGCAAUAUUACGUGGC | -3.9 ± 0.2 | -1.93 ± 0.17 |
| CGCAAGCAAUAUUACGUGGG | -4.69 ± 0.25 | -3.16 ± 0.17 |
| CGCCAGCAAUAUUACGAAAC | -4.57 ± 0.36 | -1.78 ± 0.2 |
| CGCCAGCAAUAUUACGAAGG | -1.36 ± 0.11 | -1.9 ± 0.16 |
| CGCCAGCAAUAUUACGAAGU | -3.65 ± 0.16 | -2.13 ± 0.11 |
| CGCCAGCAAUAUUACGAGGA | -3.07 ± 0.19 | -2.41 ± 0.22 |
| CGCCAGCAAUAUUACGAGUA | -2.79 ± 0.18 | -1.52 ± 0.18 |
| CGCCAGCAAUAUUACGAUAA | -3.9 ± 0.46 | -2.78 ± 0.35 |
| CGCCAGCAAUAUUACGAUGG | -3.09 ± 0.15 | -2.72 ± 0.23 |
| CGCCAGCAAUAUUACGAUUC | -4.81 ± 0.46 | -3.22 ± 0.35 |
| CGCCAGCAAUAUUACGAUUG | -0.454 ± 0.06 | 0.047 ± 0.083 |
| CGCCAGCAAUAUUACGCACU | -2.23 ± 0.14 | -1.47 ± 0.14 |
